Values of other authors in paper PMC7689933.

Biological target: His15 (UniProt position 33, AAMKRHGLDNY)
Assay: NMR
Details: not stated (presumably native, ligand-free lysozyme)

With “Lysozyme C (hen egg white lysozyme) (Gallus gallus)” as the substance, how does the pKa read?
Its pKa is 5.35 ± 0.07.
